Biological target: 2081/anti-NF IgG, polyclonal antibody generated against the SEVNF peptide
Experiment: ORIGEN ECL competition against biotinylated-SEVNF; reference SEVNF

B1: SEVNL peptide (peptide)
peptide: SEVNL
- fold less effective in competition than SEVNF: 100 fold

Source: patent publication US20070219354A1
